Source: patent US20230322893A1 (BPGENE, published 2023)

B1: SV4 (designed binder)
chain: MEEELQIIQPDLSVSVAAGESAILHCTITSLFPVGPIQWFRGAGPARVLIYNQRQGPFPRVTTVSETTKRENMDFSISISNITPADAGTYYCIKFRKGSPDTEFLSGAGTELSVRAKPS
notes: also called SV4 protein
B2: SV4-iLP (other)
chain: B1 chain
notes: also called LPD-SV4; SV4-conjugated iLP
B3: SV4-DSPE (other)
chain: B1 chain
notes: also called DSPE-SV4; DSPE-PEG2000-SV4

Target: recombinant CD47 protein (UniProt Q08722 19-139)
Assay: SPR; recombinant CD47 coupled to CM5 chip (250 RU); 1:1 model, global fit
Method: Specifically, the recombinant CD47 protein was conjugated to the surface of the CM5 chip by a target SPR reaction of 250 RU through an EDC-NHS reaction to be used, and for HBS-P, the sensogram obtained through a process of association for 3 minutes and dissociation for 10 minutes at a flow rate of 30 µL/minutes was analyzed with the BiaEvaluation software using a 1:1 binding model and global fitting.

recombinant CD47 protein, sequence (Q08722 19-139 limits assumed): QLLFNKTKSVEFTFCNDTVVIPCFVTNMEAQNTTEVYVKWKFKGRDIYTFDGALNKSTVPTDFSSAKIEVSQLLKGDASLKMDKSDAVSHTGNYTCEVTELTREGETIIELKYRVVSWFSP

Row | Binder | Kd | koff | kon
1 | B1 | 1.67 nM | 0.000275 s⁻¹ | 164000 M⁻¹ s⁻¹
2 | B2 | 1.27 nM | 0.000395 s⁻¹ | 312000 M⁻¹ s⁻¹
3 | B3 | 1.13 nM | 0.000256 s⁻¹ | 227000 M⁻¹ s⁻¹
